# Numbering of substitutions follows the chain as printed.
# T1: ST2L (IL1RL1) on cells (human, UniProt Q01638 19-556)
# T1 sequence (looked up): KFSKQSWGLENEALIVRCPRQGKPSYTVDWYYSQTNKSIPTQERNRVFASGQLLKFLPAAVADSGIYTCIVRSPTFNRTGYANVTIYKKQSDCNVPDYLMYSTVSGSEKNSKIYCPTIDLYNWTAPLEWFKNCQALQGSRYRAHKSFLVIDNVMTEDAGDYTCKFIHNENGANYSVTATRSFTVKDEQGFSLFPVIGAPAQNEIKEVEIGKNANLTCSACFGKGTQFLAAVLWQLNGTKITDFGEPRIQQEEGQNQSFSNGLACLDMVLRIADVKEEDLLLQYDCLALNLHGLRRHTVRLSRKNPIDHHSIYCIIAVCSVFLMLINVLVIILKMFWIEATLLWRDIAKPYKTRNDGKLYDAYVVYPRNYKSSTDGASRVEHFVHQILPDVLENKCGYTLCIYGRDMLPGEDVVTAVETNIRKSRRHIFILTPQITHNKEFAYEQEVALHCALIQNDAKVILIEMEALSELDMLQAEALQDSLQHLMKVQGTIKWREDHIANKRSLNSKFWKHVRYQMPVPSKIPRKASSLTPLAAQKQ
# T2: 小鼠ST2 (mST2-his) (mouse (mus musculus), UniProt P14719 27-332)
# T2 construct: not shown: His tag at C-terminus
# T2 sequence: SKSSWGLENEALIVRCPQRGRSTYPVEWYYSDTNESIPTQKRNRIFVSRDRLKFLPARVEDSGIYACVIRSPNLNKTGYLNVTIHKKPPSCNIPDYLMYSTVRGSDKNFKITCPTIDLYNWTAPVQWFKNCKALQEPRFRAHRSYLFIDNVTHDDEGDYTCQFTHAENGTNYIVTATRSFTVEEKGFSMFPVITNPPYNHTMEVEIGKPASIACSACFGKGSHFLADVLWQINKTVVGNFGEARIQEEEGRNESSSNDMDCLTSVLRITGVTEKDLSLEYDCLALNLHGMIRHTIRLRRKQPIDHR
# T3: 猕猴ST2 (mmST2-his) (rhesus macaque (Macaca mulatta), UniProt Q01638 19-328 (human entry))
# T3 construct: not shown: His tag at C-terminus
# T3 chain: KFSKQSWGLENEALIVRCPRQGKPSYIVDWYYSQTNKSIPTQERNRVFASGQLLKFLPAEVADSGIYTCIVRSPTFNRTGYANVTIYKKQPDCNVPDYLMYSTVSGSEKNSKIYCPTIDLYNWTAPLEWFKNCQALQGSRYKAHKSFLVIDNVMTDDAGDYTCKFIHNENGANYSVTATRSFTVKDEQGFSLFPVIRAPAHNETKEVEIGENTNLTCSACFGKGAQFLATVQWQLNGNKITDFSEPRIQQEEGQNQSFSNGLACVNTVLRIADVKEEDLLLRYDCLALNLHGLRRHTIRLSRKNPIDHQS
# T4: 重组人ST2-his (人ST2胞外区, C端His标签) (human (homo sapiens), UniProt Q01638 19-328)
# T4 construct: Expressed in HEK293 cells; also called hST2-his; hST2-His; not shown: His tag at C-terminus
# T4 sequence: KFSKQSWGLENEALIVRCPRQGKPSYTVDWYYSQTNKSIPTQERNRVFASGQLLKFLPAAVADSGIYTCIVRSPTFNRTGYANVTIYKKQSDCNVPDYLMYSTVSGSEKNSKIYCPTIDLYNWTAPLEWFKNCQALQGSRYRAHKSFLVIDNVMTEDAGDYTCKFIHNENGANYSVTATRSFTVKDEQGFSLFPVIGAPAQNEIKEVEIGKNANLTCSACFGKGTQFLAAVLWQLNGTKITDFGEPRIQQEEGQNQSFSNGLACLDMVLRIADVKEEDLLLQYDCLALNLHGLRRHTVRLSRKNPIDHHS
# B1: H5G10+L2G2 (antibody, IgG4, V domains shown)
# VH: EVQLVQSGAEVKKPGASVKVSCKVSGYTLTELSIHWVRQAPGKGLEWMGGFGPEDGEAIYAQKVQGRVILSEDTATDTAYMELSSLRSEDTAVYYCTNEDSGGLFDYWGQGTLVTVSS
# VL: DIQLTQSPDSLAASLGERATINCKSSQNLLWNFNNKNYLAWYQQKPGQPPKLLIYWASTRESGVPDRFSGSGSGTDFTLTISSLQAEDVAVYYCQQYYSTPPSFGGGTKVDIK
# notes: Full antibody, IgG4 heavy constant region
# B2: MSTT1041A-IgG4 (antibody, V domains shown)
# VH: EVQLVQSGAEVKKPGESLKISCKGSGYSFTNYWIGWVRQMPGKGLEWMGIIYPGNSDTRFSPSFQGQVTISADKSITTAYLQWSSLKASDTAMYYCARHGTSSDYYGLDVWGQGTTVTVSS
# VL: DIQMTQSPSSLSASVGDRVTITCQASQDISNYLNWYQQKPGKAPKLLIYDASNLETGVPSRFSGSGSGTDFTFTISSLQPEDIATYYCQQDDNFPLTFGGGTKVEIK
# notes: Positive control antibody made after US9382318B2/US9090694B2; also called 抗人ST2对照抗体MSTT1041A
# B3: GSK3772847-IgG4 (antibody, V domains shown)
# VH: EVQLLESGGGLVQPGGSLRLSCAASGFTFSIYDMIWVRQAPGKGLEWVSSIRGEGGGTYYADSVKGRFTISRDNSKNTLYLQMNSLRAEDTAVYYCARDPWSTEGSFFVLDYWGQGTLVTVSS
# VL: EIVLTQSPATLSLSPGERATLSCRASQSVDDDLAWYQQKPGQAPRLLIYDASNRATGIPARFSGSGSGTDFTLTISSLEPEDFAVYYCQQYITAPLTFGQGTKVEIK
# notes: Positive control antibody made after US9382318B2/US9090694B2; also called 抗人ST2对照抗体GSK3772847
# B4: H5G3+L1D1 (antibody, IgG4, V domains shown)
# VH: QVQLVQSGAEVKKPGASVKVSCKVFGYTLTELSMHWVRQAPGKGLEWMGSFDRGDGKTIYAQKFLGRVTMTEDTSTDTAYMELSSLRSEDTAVYYCTNEDSSGLFDFWGQGTLVTVSS
# VL: DIQLTQSPDSLAVSLGERATINCKSSQSLLYSFNNKNYLAWYQQKPGQPPNLLIYWASTRESGVPDRFSASGSGTDFTLTISSLQAEDVAVYYCQQYYGVPQTFGQGTKVEIK
# notes: IgG4 heavy constant region
# B5: S1A4-IgG4 (antibody, V domains shown)
# VH: B1 VH with E1Q, A58T, V64F, I69T, L70M, S71T, A75S, T97I, Y107F, L113T
# VL: not shown
# notes: Full antibody; also called 抗人ST2单克隆抗体S1A4
# B6: H5G3+L2G2 (antibody, IgG4, V domains shown)
# VH: B4 VH
# VL: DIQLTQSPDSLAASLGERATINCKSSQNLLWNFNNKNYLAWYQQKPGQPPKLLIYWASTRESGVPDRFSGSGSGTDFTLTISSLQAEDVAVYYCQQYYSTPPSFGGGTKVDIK
# notes: as for B1
# B7: H5E10+L2G2 (antibody, IgG4, V domains shown)
# VH: B1 VH with G52D, A58T, V64F, V68I, I69T, S71T, A75S, G102S
# VL: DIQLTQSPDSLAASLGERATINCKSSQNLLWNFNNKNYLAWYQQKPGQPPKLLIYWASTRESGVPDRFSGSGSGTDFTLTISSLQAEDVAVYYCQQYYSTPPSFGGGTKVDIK
# notes: as for B1
# B8: H6D6+L2G2 (antibody, IgG4, V domains shown)
# VH: QMQLVQSGAEVKKPGSSVKVSCKASGGTFSSYAISWVRQAPGKGLEWMGGFDPEDGETIYAQKFQGRVTMTEDTSTDTAYMELSSLRSEDTAVYYCTTEDSSGLLDFWGQGTLVTVSS
# VL: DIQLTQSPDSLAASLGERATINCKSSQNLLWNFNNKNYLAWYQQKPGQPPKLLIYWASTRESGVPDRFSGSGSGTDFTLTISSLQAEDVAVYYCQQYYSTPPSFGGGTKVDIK
# notes: as for B1
# B9: H6D3+L2G2 (antibody, IgG4, V domains shown)
# VH: QVQLVQSGAEVKKPGASVKVSCKVSGHTLTELSIHWVRQTPGKGLVWLGGFESEDGEAIYAQNFQGRVIMTEDTFTDTAYMELSSLRSEDTAVYYCTTEDSSGLIDYWGQGTLVTVSS
# VL: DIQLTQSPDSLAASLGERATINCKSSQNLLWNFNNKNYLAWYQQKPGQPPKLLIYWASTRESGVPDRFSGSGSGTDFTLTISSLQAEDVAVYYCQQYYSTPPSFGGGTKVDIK
# notes: as for B1
# B10: 全人源单链抗体S1A4 (scFv)
# scFv: QVQLVQSGAEVKKPGASVKVSCKVSGYTLTELSIHWVRQAPGKGLEWMGGFGPEDGETIYAQKFQGRVTMTEDTSTDTAYMELSSLRSEDTAVYYCINEDSGGLFDFWGQGTTVTVSSGGGGSGGGGSGGGGSDIQLTQSPDSLAVSLGERATINCKSSQSVLYSSNNKNYLAWYQQKPGQPPKLLIYWASTRESGVPDRFSGSGSGTDFTLTISSLQAEDVAVYYCQQYYSTPWTFGQGTKLEIK
# notes: also called S1A4 scFv
# B11: S1A4VH+L2G2 (antibody, V domains shown)
# VH: B1 VH with E1Q, A58T, V64F, I69T, L70M, S71T, A75S, T97I, Y107F, L113T
# VL: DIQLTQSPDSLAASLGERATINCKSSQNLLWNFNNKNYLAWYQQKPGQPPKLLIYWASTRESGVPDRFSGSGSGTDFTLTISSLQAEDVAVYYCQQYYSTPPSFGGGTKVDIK
# notes: Full antibody, heavy chain constant region IgG4 subtype
# B12: S1A4VH+L1D1 (antibody, V domains shown)
# VH: B1 VH with E1Q, A58T, V64F, I69T, L70M, S71T, A75S, T97I, Y107F, L113T
# VL: B4 VL
# notes: as for B11
# Biological target: T1, ST2L (IL1RL1) on cells
# Assay: cell-based or functional assay
row,IC50 of inhibition of IFNγ secretion by PBMC co-stimulated with IL-33 and IL-12,Binder
1,17.5 pM,B1
2,37 pM,B2
3,15.7 pM,B3
4,38 pM,B4

# Biological target: T2, 小鼠ST2 (mST2-his)
# Assay: ELISA, mST2-his coated 1 µg/mL, HRP anti-human IgG
row,binding result,Binder
1,binds,B5
2,binds,B6
3,binds,B7
4,binds,B4
5,binds,B8
6,binds,B9

# Biological target: T3, 猕猴ST2 (mmST2-his)
# Assay: ELISA, mmST2-his coated 1 µg/mL, HRP anti-human IgG
row,binding result,Binder
1,binds,B5
2,binds,B6
3,binds,B7
4,binds,B4
5,binds,B8
6,binds,B9

# Biological target: T4, 重组人ST2-his (人ST2胞外区, C端His标签)
# Assay: phage display solid-phase panning on recombinant human ST2-his
row,binding result,Binder
1,binds,B10

# Biological target: T2, 小鼠ST2 (mST2-his)
# Assay: ELISA, mST2-his coated at 1 µg/mL, HRP anti-human IgG detection
row,binding result,Binder
1,no binding,B1

# Biological target: T4, 重组人ST2-his (人ST2胞外区, C端His标签)
# Assay: SPR Biacore X100 as in Example 3.4, antibody captured, hST2-his analyte
row,Kd,Binder
1,0.0794 nM,B11
2,0.111 nM,B5
3,0.152 nM,B12

# Biological target: T4, 重组人ST2-his (人ST2胞外区, C端His标签)
# Assay: as above
# Remark: another data set of the same source
row,Kd,Binder
1,0.0852 nM,B1
2,0.139 nM,B5
3,0.115 nM,B6
4,0.709 nM,B7
5,0.695 nM,B8
6,0.0373 nM,B9

# Biological target: T4, 重组人ST2-his (人ST2胞外区, C端His标签)
# Assay: competition ELISA, hST2-his coated, competitor hIL33-mFc 0.5 µg/mL, antibody titrated
row,IC50,Binder
1,4.15 nM,B5
2,3.79 nM,B2
3,5.52 nM,B3

# Biological target: T4, 重组人ST2-his (人ST2胞外区, C端His标签)
# Assay: SPR Biacore X100, antibody captured by anti-human Fc, hST2-his analyte, 25 °C, 1:1 model
row,Kd,Binder
1,0.135 nM,B5
2,0.24 nM,B2
3,0.109 nM,B3

# From CN110357963A (BEIJING ZHIREN MEIBO BIOTECHNOLOGY CO LTD, dated 2019)
